Measurements: IntAct's records for PubMed 21111240

Columns and labels:
straa_mouse Strada = straa_mouse Strada (UniProt Q3UUJ4)
goga2_mouse Golga2 = goga2_mouse Golga2 (UniProt Q921M4)
Sequence of goga2_mouse Golga2 (Q921M4 whole entry): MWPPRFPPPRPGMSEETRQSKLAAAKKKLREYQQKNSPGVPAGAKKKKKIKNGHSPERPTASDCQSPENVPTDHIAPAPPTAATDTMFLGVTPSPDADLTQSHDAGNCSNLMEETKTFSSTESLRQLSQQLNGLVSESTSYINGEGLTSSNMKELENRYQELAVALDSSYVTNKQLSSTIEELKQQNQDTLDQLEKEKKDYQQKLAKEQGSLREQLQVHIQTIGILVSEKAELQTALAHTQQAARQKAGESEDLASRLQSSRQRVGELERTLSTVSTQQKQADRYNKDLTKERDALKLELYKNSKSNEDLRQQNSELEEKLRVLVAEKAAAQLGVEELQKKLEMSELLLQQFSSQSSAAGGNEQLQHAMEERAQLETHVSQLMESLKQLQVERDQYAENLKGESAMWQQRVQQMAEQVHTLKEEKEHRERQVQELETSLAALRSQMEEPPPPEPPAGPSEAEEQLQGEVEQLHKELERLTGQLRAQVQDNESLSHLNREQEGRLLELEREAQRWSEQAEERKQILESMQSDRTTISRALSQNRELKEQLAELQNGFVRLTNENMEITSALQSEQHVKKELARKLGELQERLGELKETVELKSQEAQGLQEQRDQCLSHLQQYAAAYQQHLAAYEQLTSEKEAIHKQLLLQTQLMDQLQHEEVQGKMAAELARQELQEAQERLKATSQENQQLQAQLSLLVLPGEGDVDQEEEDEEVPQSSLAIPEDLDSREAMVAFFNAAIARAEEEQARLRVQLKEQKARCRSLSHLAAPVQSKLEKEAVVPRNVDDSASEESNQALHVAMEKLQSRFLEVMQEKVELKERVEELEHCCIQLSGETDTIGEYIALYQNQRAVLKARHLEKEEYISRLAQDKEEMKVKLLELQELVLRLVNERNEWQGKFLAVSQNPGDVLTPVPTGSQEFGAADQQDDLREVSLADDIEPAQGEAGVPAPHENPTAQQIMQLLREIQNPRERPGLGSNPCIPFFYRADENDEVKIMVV

Sequence of Serine/threonine-protein kinase 25 (Mus musculus), Q9Z2W1 K49R (Q9Z2W1 whole entry K49R): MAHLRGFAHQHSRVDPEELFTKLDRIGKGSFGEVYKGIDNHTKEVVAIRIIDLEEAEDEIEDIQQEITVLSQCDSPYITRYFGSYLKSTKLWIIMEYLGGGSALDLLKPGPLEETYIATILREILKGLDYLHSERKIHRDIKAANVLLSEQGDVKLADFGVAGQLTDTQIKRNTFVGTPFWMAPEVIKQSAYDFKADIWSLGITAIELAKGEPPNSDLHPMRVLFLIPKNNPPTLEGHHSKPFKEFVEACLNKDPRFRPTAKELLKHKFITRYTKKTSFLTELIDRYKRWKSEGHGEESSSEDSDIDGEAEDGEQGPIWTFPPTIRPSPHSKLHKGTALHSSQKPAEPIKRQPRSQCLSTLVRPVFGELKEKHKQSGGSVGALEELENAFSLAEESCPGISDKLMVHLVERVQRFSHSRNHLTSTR
Sequence of straa_mouse Strada (Q3UUJ4 whole entry): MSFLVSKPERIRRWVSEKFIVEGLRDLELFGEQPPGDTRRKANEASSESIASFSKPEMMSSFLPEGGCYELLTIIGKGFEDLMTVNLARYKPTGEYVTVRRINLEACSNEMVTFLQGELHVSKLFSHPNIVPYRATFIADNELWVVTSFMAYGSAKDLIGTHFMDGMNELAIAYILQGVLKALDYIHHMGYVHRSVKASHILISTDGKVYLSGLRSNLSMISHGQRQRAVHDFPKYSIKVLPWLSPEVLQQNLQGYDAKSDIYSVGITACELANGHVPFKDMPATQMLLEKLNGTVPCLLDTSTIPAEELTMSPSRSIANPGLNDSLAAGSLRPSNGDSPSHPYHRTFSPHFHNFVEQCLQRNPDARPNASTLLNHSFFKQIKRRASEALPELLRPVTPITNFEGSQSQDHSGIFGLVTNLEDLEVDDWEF

Serine/threonine-protein kinase 25 (Mus musculus), Q9Z2W1 K49R
effect of a mutation on the interaction (straa_mouse Strada): decreasing interaction
effect of a mutation on the interaction (goga2_mouse Golga2): increasing interaction
